Target: mitogen-activated protein kinase-activated protein kinase 2 (human MK2) (human, UniProt P49137 46-400, limits assumed)
Assay: cell-based or functional assay

mitogen-activated protein kinase-activated protein kinase 2 (human MK2), sequence (P49137 46-400 limits assumed): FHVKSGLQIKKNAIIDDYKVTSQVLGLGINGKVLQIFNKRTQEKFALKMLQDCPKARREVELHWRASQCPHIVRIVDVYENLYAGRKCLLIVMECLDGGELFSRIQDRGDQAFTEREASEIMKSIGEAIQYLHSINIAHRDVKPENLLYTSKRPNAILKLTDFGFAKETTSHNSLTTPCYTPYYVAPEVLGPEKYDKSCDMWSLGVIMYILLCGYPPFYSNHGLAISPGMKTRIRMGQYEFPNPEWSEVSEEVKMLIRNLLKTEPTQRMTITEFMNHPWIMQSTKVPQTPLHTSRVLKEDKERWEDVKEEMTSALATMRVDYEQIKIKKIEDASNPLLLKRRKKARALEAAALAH

IC50 (radiometric kinase assay), fold lower than the therapeutic inhibitor peptide incorporating the PTD peptide … [SEQ ID NO: 5]: > 30 fold
B1: therapeutic inhibitor peptide incorporating the PTD peptide WLRRRIKAWLRRI [SEQ ID NO: 38] and the therapeutic domain KALNRQLGVAA [SEQ ID NO: 13] (peptide)
peptide: WLRRRIKAWLRRIKALNRQLGVAA

Source: US20100158968A1 (PURDUE RESEARCH FOUNDATION, published 2010)
